Target: interferon receptor on MCF-7 breast carcinoma cells
Experiment: cell-based or functional assay

B1: natural wild-type IFNα-5 protein (ligand)
chain: CDLPQTHSLSNRRTLMIMAQMGRISPFSCLKDRHDFGFPQEEFDGNQFQKAQAISVLHEMIQQTFNLFSTKDSSATWDETLLDKFYTELYQQLNDLEACMMQEVGVEDTPLMNVDSILTVRKYFQRITLYLTEKKYSPCAWEVVRAEIMRSFSLSANLQERLRRKE
EC50, stimulation of Luciferase activity (pISRE-Luc reporter gene in MCF-7 cells): 5.67 pM

B2: C122S mutated IFNα-5 (ligand)
chain: CDLPQTHSLSNRRTLMIMAQMGRISPFSCLKDRHDFGFPQEEFDGNQFQKAQAISVLHEMIQQTFNLFSTKDSSATWDETLLDKFYTELYQQLNDLEASMMQEVGVEDTPLMNVDSILTVRKYFQRITLYLTEKKYSPCAWEVVRAEIMRSFSLSANLQERLRRKE
EC50, stimulation of Luciferase activity (pISRE-Luc reporter gene in MCF-7 cells): 93.3 pM
ratio of the EC50 value for the mutated protein over the EC50 value for the wild-type protein (pISRE-Luc reporter gene in MCF-7 cells): 18.3 fold
